Measured values reported in patent US20180250358A1, “GHRH AGONISTS FOR THE TREATMENT OF ISCHEMIC DISORDERS” (published 2018).
Non-standard residues stand in square brackets, D forms with d. No end group written: not given here. *: point of attachment. Desaminotyrosyl = O=C(CCc1ccc(O)cc1)*; NMeY = CN[C@@H](Cc1ccc(O)cc1)C(=O)O; Agmatine = N=C(N)NCCCCN*; Nle = CCCC[C@H](N)C(=O)O; Orn = NCCC[C@H](N)C(=O)O; Abu = CC[C@H](N)C(=O)O; Aoc = NCCCCCCCC(=O)O

T1: GHRH receptor of human pituitary membranes (human, UniProt Q02643)
T1 sequence: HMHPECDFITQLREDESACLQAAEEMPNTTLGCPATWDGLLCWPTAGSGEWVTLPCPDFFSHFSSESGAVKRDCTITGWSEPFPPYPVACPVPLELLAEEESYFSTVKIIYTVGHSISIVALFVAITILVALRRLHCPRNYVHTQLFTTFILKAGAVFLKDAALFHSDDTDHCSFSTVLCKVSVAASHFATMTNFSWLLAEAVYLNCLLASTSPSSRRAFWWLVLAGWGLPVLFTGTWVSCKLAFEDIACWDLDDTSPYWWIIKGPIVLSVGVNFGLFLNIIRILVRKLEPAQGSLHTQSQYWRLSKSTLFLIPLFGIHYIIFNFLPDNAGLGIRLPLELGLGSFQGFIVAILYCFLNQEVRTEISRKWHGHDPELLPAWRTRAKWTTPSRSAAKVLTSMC

T2: GHRH receptor of rat pituitary cells (rat, UniProt Q02644)
T2 sequence: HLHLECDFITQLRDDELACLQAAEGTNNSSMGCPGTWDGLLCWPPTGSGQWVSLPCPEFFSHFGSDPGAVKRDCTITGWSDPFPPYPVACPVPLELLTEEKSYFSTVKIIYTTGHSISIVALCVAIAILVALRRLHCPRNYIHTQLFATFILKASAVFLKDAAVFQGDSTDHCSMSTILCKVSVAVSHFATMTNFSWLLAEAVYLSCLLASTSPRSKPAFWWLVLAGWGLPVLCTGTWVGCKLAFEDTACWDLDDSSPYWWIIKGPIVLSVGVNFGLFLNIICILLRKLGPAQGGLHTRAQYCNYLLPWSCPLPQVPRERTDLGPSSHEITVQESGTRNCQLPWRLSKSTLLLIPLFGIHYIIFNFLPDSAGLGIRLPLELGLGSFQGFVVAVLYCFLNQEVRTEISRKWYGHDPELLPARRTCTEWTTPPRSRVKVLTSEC


How the values were obtained:
[1] = molecular target: GHRH receptor of human pituitary membranes (human) (UniProt Q02643); assay: competition vs 125I-[His1,Nle27]hGHRH(1-32)NH2, human pituitary membranes
[2] = molecular target: T1, GHRH receptor of human pituitary …; assay: competition vs 125I-JV-1-42, human pituitary membranes
Method: The final binding affinities were expressed as IC₅₀ values and were calculated by using the LIGAND PC computerized curve-fitting program of Munson and Rodbard as modified by McPherson.

[3] = molecular target: T1, GHRH receptor of human pituitary …; assay: as above; remark: listed apart in the source
From the text: (§1) Normal human pituitaries were purchased from the National Hormone and Peptide Program (A.F. Parlow, Los Angeles, County Harbor-UCLA Medical Center, Torrance, Calif.).

[4] = molecular target: T1, GHRH receptor of human pituitary …; assay: competition vs 125I-[His1,Nle27]hGHRH(1-32)NH2, human pituitary membranes
From the text: as §1

[5] = molecular target: T1, GHRH receptor of human pituitary …; assay: as above; remark: listed apart in the source
[6] = molecular target: T1, GHRH receptor of human pituitary …; assay: as above; remark: listed apart in the source
[7] = molecular target: T2, GHRH receptor of rat pituitary cells; assay: cell-based or functional assay

Molecule | IC50 [2] | IC50 [3] | relative affinity (binding potency) vs JI-38 [3] | IC50 [4] | relative affinity (binding potency) compared to JI-38 [5] | relative affinity (binding potency) compared to hGHRH(1-29) [5] | further results
JI-36 (peptide) | – | – | – | – | – | – | relative affinity (binding potency) vs GHRH (vs GHRH(1-29)=1) [1]: 3.25
JI-34 (peptide) | – | – | – | – | – | – | relative affinity (binding potency) vs GHRH (vs GHRH(1-29)=1) [1]: 4.32
[Desaminotyrosyl]ADAIFTQSYR[Orn]VL[Abu]QLSAR[Orn]LLQDI[Nle]D[Agmatine] (SMILES CCCC[C@H](NC(=O)[C@@H](NC(=O)[C@H](CC(=O)O)NC(=O)[C@H](CCC(N)=O)NC(=O)[C@H](CC(C)C)NC(=O)[C@H](CC(C)C)NC(=O)[C@H](CCCN)NC(=O)[C@H](CCCNC(=N)N)NC(=O)[C@H](C)NC(=O)[C@H](CO)NC(=O)[C@H](CC(C)C)NC(=O)[C@H](CCC(N)=O)NC(=O)[C@H](CC)NC(=O)[C@H](CC(C)C)NC(=O)[C@@H](NC(=O)[C@H](CCCN)NC(=O)[C@H](CCCNC(=N)N)NC(=O)[C@H](Cc1ccc(O)cc1)NC(=O)[C@H](CO)NC(=O)[C@H](CCC(N)=O)NC(=O)[C@@H](NC(=O)[C@H](Cc1ccccc1)NC(=O)[C@@H](NC(=O)[C@H](C)NC(=O)[C@H](CC(=O)O)NC(=O)[C@H](C)NC(=O)CCc1ccc(O)cc1)[C@@H](C)CC)[C@@H](C)O)C(C)C)[C@@H](C)CC)C(=O)N[C@@H](CC(=O)O)C(=O)NCCCCNC(=N)N) [JI-38 [Dat^1, Gln^8, Orn^12,21, Abu^15, Nle^27, Asp^28, Agm^29]hGHRH(1-29)NH2] | 1.71 nM | 4.35 nM | 1 vs JI-38=1 | 1.95 nM | 1 vs JI-38=1 | 2.79 vs hGHRH(1-29)NH2=1 | relative affinity (binding potency) vs GHRH [2]: 2.4 vs GHRH(1-29)=1; relative affinity (binding potency) vs JI-38 [2]: 1 vs JI-38=1; relative affinity (binding potency) vs GHRH [4]: 3.03 vs GHRH(1-29)=1; relative affinity (binding potency) vs JI-38 [4]: 1 vs JI-38=1; IC50 [5]: 2.74 nM
[Desaminotyrosyl][dA]DAIFTQSYR[Orn]VL[Abu]QLSAR[Orn]LLQDI[Nle]DR[Aoc]-NH2 (SMILES CCCC[C@H](NC(=O)[C@@H](NC(=O)[C@H](CC(=O)O)NC(=O)[C@H](CCC(N)=O)NC(=O)[C@H](CC(C)C)NC(=O)[C@H](CC(C)C)NC(=O)[C@H](CCCN)NC(=O)[C@H](CCCNC(=N)N)NC(=O)[C@H](C)NC(=O)[C@H](CO)NC(=O)[C@H](CC(C)C)NC(=O)[C@H](CCC(N)=O)NC(=O)[C@H](CC)NC(=O)[C@H](CC(C)C)NC(=O)[C@@H](NC(=O)[C@H](CCCN)NC(=O)[C@H](CCCNC(=N)N)NC(=O)[C@H](Cc1ccc(O)cc1)NC(=O)[C@H](CO)NC(=O)[C@H](CCC(N)=O)NC(=O)[C@@H](NC(=O)[C@H](Cc1ccccc1)NC(=O)[C@@H](NC(=O)[C@H](C)NC(=O)[C@H](CC(=O)O)NC(=O)[C@@H](C)NC(=O)CCc1ccc(O)cc1)[C@@H](C)CC)[C@@H](C)O)C(C)C)[C@@H](C)CC)C(=O)N[C@@H](CC(=O)O)C(=O)N[C@@H](CCCNC(=N)N)C(=O)NCCCCCCCC(N)=O) [P-21304 [Dat^1, D-Ala^2, Gln^8, Orn^12, Abu^15, Orn^21, Nle^27, Asp^28, Amc^30]hGHRH(1-30)NH2] | – | – | – | 0.08 nM | – | – | relative affinity (binding potency) vs GHRH [4]: 74 vs GHRH(1-29)=1; relative affinity (binding potency) vs JI-38 [4]: 24.4 vs JI-38=1

Now from value to molecule, other results behind:

IC50 [2] | IC50 [3] | relative affinity (binding potency) vs JI-38 [3] | IC50 [4] | relative affinity (binding potency) compared to JI-38 [5] | relative affinity (binding potency) compared to hGHRH(1-29) [5] | Molecule | further results
4.06 nM | – | – | 5.92 nM | – | – | YADAIFTNSYRKVLGQLSARKLLQDIMSR-NH2 (ligand) [hGHRH(1-29)NH2] | –
– | 0.16 nM | 27.2 vs JI-38=1 | – | 3.69 vs JI-38=1 | 10.3 vs hGHRH(1-29)NH2=1 | [NMeY][dA]DAIFTQSYR[Orn]VL[Abu]QLSAR[Orn]LLQDI[Nle]DR-NHMe [P-27403 [N-Me-Tyr^1, D-Ala^2, Gln^8, Orn^12, Abu^15, Orn^21, Nle^27, Asp^28]hGHRH(1-29)NH-CH3] | fold enhancement of receptor binding affinity vs JI-38 [6]: ~3.7 fold vs JI-38; IC50 [5]: 0.74 nM
0.01 nM | 0.27 nM | 16.1 vs JI-38=1 | – | 2.69 vs JI-38=1 | 7.5 vs hGHRH(1-29)NH2=1 | [NMeY]ADAIFTQSYR[Orn]VL[Abu]QLSAR[Orn]LLQDI[Nle]D[Agmatine] [P-20356 [N-Me-Tyr^1, Gln^8, Orn^12, Abu^15, Orn^21, Nle^27, Asp^28, Agm^29]hGHRH(1-29)NH2] | GH-releasing potency in vitro relative to JI-38, superfused rat pituitary cells [7]: ~3 fold vs JI-38; relative affinity (binding potency) vs GHRH [2]: 406 vs GHRH(1-29)=1; relative affinity (binding potency) vs JI-38 [2]: 171 vs JI-38=1; fold increase in GHRH receptor binding affinity vs JI-38 [6]: 2.7 fold vs JI-38
